Results from publication PMC7211764.

Target: wild-type A3A 1-199 (APOBEC3A) (human) (UniProt P31941)
Experiment: SEC

Sequence of wild-type A3A 1-199 (APOBEC3A), P31941 1-199 (enzyme; other documents disagree on this pair) (P31941 whole entry): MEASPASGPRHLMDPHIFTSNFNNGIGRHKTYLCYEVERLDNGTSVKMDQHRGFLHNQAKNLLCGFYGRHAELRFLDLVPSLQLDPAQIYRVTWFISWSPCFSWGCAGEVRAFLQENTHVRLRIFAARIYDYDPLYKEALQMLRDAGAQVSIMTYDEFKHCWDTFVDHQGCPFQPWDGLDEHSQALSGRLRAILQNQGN

## wild-type A3A 1-199 (APOBEC3A), P31941 1-199 (enzyme; other documents disagree on this pair)
  stoichiometry N: 2
